The values below come from PMC5882232.

The target of this assay is TRPA1b-FLAG (mouse TRPA1b, splice variant of TRPA1 lacking exon 20, tagged with FLAG) (mouse). Put plainly: native gel or EMSA. In general terms: In EMSA bound probe runs differently from free probe, usually more slowly.

By stoichiometry N is commonly meant a count of units in the complex or per binding partner. “TRPA1b-FLAG (mouse TRPA1b, splice variant of TRPA1 lacking exon 20, tagged with FLAG) (natural protein)” registered a stoichiometry N of 4.
